# B1: mRNA-splicing (parent)
# chain: AGUUGCUGCUGGGAGCUCCAGCACAGUGAAAUGGACAGAAGGGCAGAGCAA
# Variants of: B1
# Test: exon inclusion enrichment index; higher = more inclusion; WT1 exon 5 minigene, HEK293
row,Variant,exon inclusion enrichment index
1,AGUUGCUGCUGGGAGCUCCAGCACAGUGAAAUGGACAGAAGGGCAGUUCAA [A47U G48U],0.125
2,AGUUGCUGCUGGGAGCUCCAGCACAGUGAAAUGGACAGAAGGGCAGUCCAA [A47U G48C],0.106
3,AGUUGCUGCUGGGAGCUCCAGCACAGUGAAAUGGACAGAAGGGCAGUACAA [A47U G48A],0.123
4,AGUUGCUGCUGGGAGCUCCAGCACAGUGAAAUGGACAGAAGGGCAGAUCAA [G48U],0.288
5,AGUUGCUGCUGGGAGCUCCAGCACAGUGAAAUGGACAGAAGGGCAGAACAA [G48A],0.46
6,AGUUGCUGCUGGGAGCUCCAGCACAGUGAAAUGGACAGAAGGGCAGACCAA [G48C],0.292
7,AGUUGCUGCUGGGAGCUCCAGCACAGUGAAAUGGACAGAAGGGCAGGGCAA [A47G],0.0334
8,AGUUGCUGCUGGGAGCUCCAGCACAGUGAAAUGGACAGAAGGGCAGUGCAA [A47U],0.105
9,AGUUGCUGCUGGGAGCUCCAGCACAGUGAAAUGGACAGAAGGGCAGCGCAA [A47C],0.293
10,AGUUGCUGCUGGGAGCUCCAGCACAGUGAAAUGGACAGAAGGGCAGGACAA [A47G G48A],0.0368
11,AGUUGCUGCUGGGAGCUCCAGCACAGUGAAAUGGACAGAAGGGCAGGUCAA [A47G G48U],0.00564
12,AGUUGCUGCUGGGAGCUCCAGCACAGUGAAAUGGACAGAAGGGCAGGCCAA [A47G G48C],0.0501
13,AGUUGCUGCUGGGAGCUCCAGCACAGUGAAAUGGACAGAAGGGCAGCCCAA [A47C G48C],0.171
14,AGUUGCUGCUGGGAGCUCCAGCACAGUGAAAUGGACAGAAGGGCAGCACAA [A47C G48A],0.0773
15,AGUUGCUGCUGGGAGCUCCAGCACAGUGAAAUGGACAGAAGGGCAGCUCAA [A47C G48U],0.173
16,AGUUGCUGCUGGGAGCUCCAGCACAGUGAAAUGGACAGAAGGGCAUCGCAA [G46U A47C],0.692
17,AGUUGCUGCUGGGAGCUCCAGCACAGUGAAAUGGACAGAAGGGCAUGGCAA [G46U A47G],0.116
18,AGUUGCUGCUGGGAGCUCCAGCACAGUGAAAUGGACAGAAGGGCAUUGCAA [G46U A47U],0.237
